Data on one molecule can be found in paper doi:10.1101/2025.01.01.631016, “A tool to dissect heterotypic determinants of homotypic protein phase behavior” (bioRxiv, 2025).

In the assay the target is T1, Avitag-His-TEV-mEos3.1 (Lobophyllia hemprichii EosFP, …, point mutant).
T1 construct: also called purified mEos3.1; pET-Biotin-His6-mEos3.1; source: E. coli BL21 (DE3), co-expressed with BirA, purified (Ni-NTA, anion exchange)
T1 chain: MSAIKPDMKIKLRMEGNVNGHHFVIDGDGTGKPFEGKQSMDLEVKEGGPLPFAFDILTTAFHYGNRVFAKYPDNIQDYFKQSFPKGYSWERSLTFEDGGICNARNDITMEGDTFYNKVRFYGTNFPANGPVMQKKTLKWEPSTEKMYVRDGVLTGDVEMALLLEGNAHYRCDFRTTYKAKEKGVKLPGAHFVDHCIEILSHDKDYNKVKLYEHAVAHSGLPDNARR
The assay is described as follows: BLI. Particulars: both partners purified.

A word on the Kd: it is the free concentration of one partner at which half of the binding sites on the other are occupied at equilibrium, for simple one-to-one binding. Lower therefore signals higher affinity.

B1: tag free mEosNb (VHH)
VHH: QVQLQESGGGLVQAGGSLRLSCAASGNISQLVYMGWYRQAPGKERELVAGITHGGITYYADSVKGRFTISRDNAKNTVYLQMNSLKPEDTAVYYCAAFQWRSDDVGYLNLGPLEYWGQGTQVTVSS
notes: also called mEos3Nb; nanobody against mEos3; not shown: Avitag, C-terminal, cleaved; His, C-terminal, cleaved
Consider B1, for which binding was put at a Kd of 76.8 nM.
